Measured values reported in article PMC3919625.

Target: 2G12 IgG monomer (human)
Experiment: SEC

2G12 IgG monomer (antibody)
stoichiometry N: 3
